# Results: the Human Domainome abundance scans (Beltran et al. 2025)
# ± gives the uncertainty stated by the source.
# B1: Nucleosome-remodeling factor subunit BPTF, residues 2862 to 2918; numbered along this chain, Q12830 (parent)
# chain: TKKDTKLYCICKTPYDESKFYIGCDRCQNWYHGRCVGILQSEAELIDEYVCPQCQST
# Variants of: B1
# Assay: abundance fitness (aPCA) (normalised: wild type 0, dead -1); higher = more abundant; growth selection in yeast, the domain comes from the species named
# Conditions: Homo sapiens
row,Variant,abundance fitness
1,TKKDTKLYCICKTPYDESKFYIGCDRCQNWYHGRCVGILQSKAELIDEYVCPQCQST,-0.083 ± 0.11
2,TKKDTKLYCICKTPYDESKFYIGCDRCQNWYHGRCVGILQSDAELIDEYVCPQCQST,-0.003 ± 0.2
3,TKKDTKLYCICKTPYDESKFYIGCDRCQNWYHGRCVGILQSGAELIDEYVCPQCQST,-0.294 ± 0.13
4,TKKDTKLYCICKTPYDESKFYIGCDRCQNWYHGRCVGILQSVAELIDEYVCPQCQST,-0.269 ± 0.12
5,TKKDTKLYCICKTPYDESKFYIGCDRCQNWYHGRCVGILQSWAELIDEYVCPQCQST,-0.539 ± 0.18
6,TKKDTKLYCICKTPYDESKFYIGCDRCQNWYHGRCVGILQSYAELIDEYVCPQCQST,-0.304 ± 0.21
7,TKKDTKLYCICKTPYDESKFYIGCDRCQNWYHGRCVGILQSPAELIDEYVCPQCQST,-0.342 ± 0.097
8,TKKDTKLYCICKTPYDESKFYIGCDRCQNWYHGRCVGILQSNAELIDEYVCPQCQST,-0.279 ± 0.17
9,TKKDTKLYCICKTPYDESKFYIGCDRCQNWYHGRCVGILQSCAELIDEYVCPQCQST,-0.129 ± 0.23
10,TKKDTKLYCICKTPYDESKFYIGCDRCQNWYHGRCVGILQSLAELIDEYVCPQCQST,-0.468 ± 0.11
11,TKKDTKLYCICKTPYDESKFYIGCDRCQNWYHGRCVGILQSRAELIDEYVCPQCQST,-0.403 ± 0.12
12,TKKDTKLYCICKTPYDESKFYIGCDRCQNWYHGRCVGILQIEAELIDEYVCPQCQST,-0.507 ± 0.14
13,TKKDTKLYCICKTPYDESKFYIGCDRCQNWYHGRCVGILQTEAELIDEYVCPQCQST,0.069 ± 0.1
14,TKKDTKLYCICKTPYDESKFYIGCDRCQNWYHGRCVGILQCEAELIDEYVCPQCQST,-0.213 ± 0.13
15,TKKDTKLYCICKTPYDESKFYIGCDRCQNWYHGRCVGILQEEAELIDEYVCPQCQST,0.017 ± 0.13
16,TKKDTKLYCICKTPYDESKFYIGCDRCQNWYHGRCVGILQGEAELIDEYVCPQCQST,-0.105 ± 0.074
17,TKKDTKLYCICKTPYDESKFYIGCDRCQNWYHGRCVGILQMEAELIDEYVCPQCQST,-0.137 ± 0.17
18,TKKDTKLYCICKTPYDESKFYIGCDRCQNWYHGRCVGILQPEAELIDEYVCPQCQST,-0.106 ± 0.12
19,TKKDTKLYCICKTPYDESKFYIGCDRCQNWYHGRCVGILQAEAELIDEYVCPQCQST,-0.146 ± 0.1
20,TKKDTKLYCICKTPYDESKFYIGCDRCQNWYHGRCVGILQQEAELIDEYVCPQCQST,-0.07 ± 0.13
21,TKKDTKLYCICKTPYDESKFYIGCDRCQNWYHGRCVGILQDEAELIDEYVCPQCQST,-0.071 ± 0.16
22,TKKDTKLYCICKTPYDESKFYIGCDRCQNWYHGRCVGILQLEAELIDEYVCPQCQST,-0.198 ± 0.086
23,TKKDTKLYCICKTPYDESKFYIGCDRCQNWYHGRCVGILQKEAELIDEYVCPQCQST,-0.015 ± 0.15
24,TKKDTKLYCICKTPYDESKFYIGCDRCQNWYHGRCVGILQYEAELIDEYVCPQCQST,-0.132 ± 0.12

row,Variant,abundance fitness
1,TKKDTKLYCICKTPYDESKFYIGCDRCQNWYHGRCVGILQHEAELIDEYVCPQCQST,-0.152 ± 0.13
2,TKKDTKLYCICKTPYDESKFYIGCDRCQNWYHGRCVGILQREAELIDEYVCPQCQST,0.019 ± 0.071
3,TKKDTKLYCICKTPYDESKFYIGCDRCQNWYHGRCVGILQNEAELIDEYVCPQCQST,0.038 ± 0.11
4,TKKDTKLYCICKTPYDESKFYIGCDRCQNWYHGRCVGILQFEAELIDEYVCPQCQST,-0.173 ± 0.12
5,TKKDTKLYCICKTPYDESKFYIGCDRCQNWYHGRCVGILQWEAELIDEYVCPQCQST,-0.207 ± 0.11
6,TKKDTKLYCICKTPYDESKFYIGCDRCQNWYHGRCVGILDSEAELIDEYVCPQCQST,-0.126 ± 0.25
7,TKKDTKLYCICKTPYDESKFYIGCDRCQNWYHGRCVGILVSEAELIDEYVCPQCQST,-0.19 ± 0.11
8,TKKDTKLYCICKTPYDESKFYIGCDRCQNWYHGRCVGILCSEAELIDEYVCPQCQST,-0.12 ± 0.18
9,TKKDTKLYCICKTPYDESKFYIGCDRCQNWYHGRCVGILISEAELIDEYVCPQCQST,-0.378 ± 0.17
10,TKKDTKLYCICKTPYDESKFYIGCDRCQNWYHGRCVGILFSEAELIDEYVCPQCQST,-0.201 ± 0.2
11,TKKDTKLYCICKTPYDESKFYIGCDRCQNWYHGRCVGILHSEAELIDEYVCPQCQST,0.002 ± 0.17
12,TKKDTKLYCICKTPYDESKFYIGCDRCQNWYHGRCVGILTSEAELIDEYVCPQCQST,-0.127 ± 0.14
13,TKKDTKLYCICKTPYDESKFYIGCDRCQNWYHGRCVGILLSEAELIDEYVCPQCQST,-0.282 ± 0.1
14,TKKDTKLYCICKTPYDESKFYIGCDRCQNWYHGRCVGILKSEAELIDEYVCPQCQST,-0.214 ± 0.13
15,TKKDTKLYCICKTPYDESKFYIGCDRCQNWYHGRCVGILASEAELIDEYVCPQCQST,-0.072 ± 0.093
16,TKKDTKLYCICKTPYDESKFYIGCDRCQNWYHGRCVGILSSEAELIDEYVCPQCQST,-0.049 ± 0.078
17,TKKDTKLYCICKTPYDESKFYIGCDRCQNWYHGRCVGILPSEAELIDEYVCPQCQST,-0.2 ± 0.11
18,TKKDTKLYCICKTPYDESKFYIGCDRCQNWYHGRCVGILESEAELIDEYVCPQCQST,-0.036 ± 0.093
19,TKKDTKLYCICKTPYDESKFYIGCDRCQNWYHGRCVGILGSEAELIDEYVCPQCQST,-0.062 ± 0.093
20,TKKDTKLYCICKTPYDESKFYIGCDRCQNWYHGRCVGILWSEAELIDEYVCPQCQST,-0.371 ± 0.12
21,TKKDTKLYCICKTPYDESKFYIGCDRCQNWYHGRCVGILNSEAELIDEYVCPQCQST,-0.296 ± 0.17
22,TKKDTKLYCICKTPYDESKFYIGCDRCQNWYHGRCVGILYSEAELIDEYVCPQCQST,-0.306 ± 0.17
23,TKKDTKLYCICKTPYDESKFYIGCDRCQNWYHGRCVGILMSEAELIDEYVCPQCQST,-0.244 ± 0.14
